Experimental data reported in US20060241051A1 (Takeda / Millennium, published 2006).
Where two headings read alike, the source gives them in different places. Square brackets hold non-standard residues; d marks the D form. Ends that are not written are not given here. * marks the point of attachment. Phe(3,4-Cl2) = N[C@@H](Cc1ccc(Cl)c(Cl)c1)C(=O)O; Phe(4-NH2) = Nc1ccc(C[C@H](N)C(=O)O)cc1; Arg(Me) = CNC(=N)NCCC[C@H](N)C(=O)O; Bta = N[C@@H](Cc1csc2ccccc12)C(=O)O; Fmoc = O=C(OCC1c2ccccc2-c2ccccc21)*; 4Pal = N[C@@H](Cc1ccncc1)C(=O)O; Cha = N[C@@H](CC1CCCCC1)C(=O)O; Abu = CC[C@H](N)C(=O)O; azaGly = NNC(=O)O

B1: Compound No. 187: [Abu8]MS10 (peptide)
peptide: YNWNSFG[Abu]RF-NH2
modifications: N-terminus assumed
SMILES: CC[C@H](NC(=O)CNC(=O)[C@H](Cc1ccccc1)NC(=O)[C@H](CO)NC(=O)[C@H](CC(N)=O)NC(=O)[C@H](Cc1c[nH]c2ccccc12)NC(=O)[C@H](CC(N)=O)NC(=O)[C@@H](N)Cc1ccc(O)cc1)C(=O)N[C@@H](CCCNC(=N)N)C(=O)N[C@@H](Cc1ccccc1)C(N)=O
B2: Compound No. 170: [D-Tyr1,Ser3,Arg(Me)9]MS10 (peptide)
peptide: [dY]NSNSFGL[Arg(Me)]F-NH2
modifications: N-terminus assumed
SMILES: CNC(=N)NCCC[C@H](NC(=O)[C@H](CC(C)C)NC(=O)CNC(=O)[C@H](Cc1ccccc1)NC(=O)[C@H](CO)NC(=O)[C@H](CC(N)=O)NC(=O)[C@H](CO)NC(=O)[C@H](CC(N)=O)NC(=O)[C@H](N)Cc1ccc(O)cc1)C(=O)N[C@@H](Cc1ccccc1)C(N)=O
B3: Compound No. 174: [D-Tyr1,Arg(Me)9,Trp10]MS10 (peptide)
peptide: [dY]NWNSFGL[Arg(Me)]W-NH2
modifications: N-terminus assumed
SMILES: CNC(=N)NCCC[C@H](NC(=O)[C@H](CC(C)C)NC(=O)CNC(=O)[C@H](Cc1ccccc1)NC(=O)[C@H](CO)NC(=O)[C@H](CC(N)=O)NC(=O)[C@H](Cc1c[nH]c2ccccc12)NC(=O)[C@H](CC(N)=O)NC(=O)[C@H](N)Cc1ccc(O)cc1)C(=O)N[C@@H](Cc1c[nH]c2ccccc12)C(N)=O
B4: Compound No. 169: [D-Tyr1,Ala3,Arg(Me)9]MS10 (peptide)
peptide: [dY]NANSFGL[Arg(Me)]F-NH2
modifications: N-terminus assumed
SMILES: CNC(=N)NCCC[C@H](NC(=O)[C@H](CC(C)C)NC(=O)CNC(=O)[C@H](Cc1ccccc1)NC(=O)[C@H](CO)NC(=O)[C@H](CC(N)=O)NC(=O)[C@H](C)NC(=O)[C@H](CC(N)=O)NC(=O)[C@H](N)Cc1ccc(O)cc1)C(=O)N[C@@H](Cc1ccccc1)C(N)=O
B5: Compound No. 189: [Ala(3-Bzt)10]MS10 (peptide)
peptide: YNWNSFGLR[Bta]-NH2
modifications: N-terminus assumed
SMILES: CC(C)C[C@H](NC(=O)CNC(=O)[C@H](Cc1ccccc1)NC(=O)[C@H](CO)NC(=O)[C@H](CC(N)=O)NC(=O)[C@H](Cc1c[nH]c2ccccc12)NC(=O)[C@H](CC(N)=O)NC(=O)[C@@H](N)Cc1ccc(O)cc1)C(=O)N[C@@H](CCCNC(=N)N)C(=O)N[C@@H](Cc1csc2ccccc12)C(N)=O
B6: Compound No. 182: [D-Tyr1,Cha3,6,Arg(Me)9,Trp10]MS10 (peptide)
peptide: [dY]N[Cha]NS[Cha]GL[Arg(Me)]W-NH2
modifications: N-terminus assumed
SMILES: CNC(=N)NCCC[C@H](NC(=O)[C@H](CC(C)C)NC(=O)CNC(=O)[C@H](CC1CCCCC1)NC(=O)[C@H](CO)NC(=O)[C@H](CC(N)=O)NC(=O)[C@H](CC1CCCCC1)NC(=O)[C@H](CC(N)=O)NC(=O)[C@H](N)Cc1ccc(O)cc1)C(=O)N[C@@H](Cc1c[nH]c2ccccc12)C(N)=O
B7: Compound No. 171: [D-Tyr1,Cha3,Arg(Me)9]MS10 (peptide)
peptide: [dY]N[Cha]NSFGL[Arg(Me)]F-NH2
modifications: N-terminus assumed
SMILES: CNC(=N)NCCC[C@H](NC(=O)[C@H](CC(C)C)NC(=O)CNC(=O)[C@H](Cc1ccccc1)NC(=O)[C@H](CO)NC(=O)[C@H](CC(N)=O)NC(=O)[C@H](CC1CCCCC1)NC(=O)[C@H](CC(N)=O)NC(=O)[C@H](N)Cc1ccc(O)cc1)C(=O)N[C@@H](Cc1ccccc1)C(N)=O
B8: Compound No. 190: [D-Tyr1,Cha3,AzaGly7,Arg(Me)9]MS10 (peptide)
peptide: [dY]N[Cha]NSF[azaGly]L[Arg(Me)]F-NH2
modifications: N-terminus assumed
SMILES: CNC(=N)NCCC[C@H](NC(=O)[C@H](CC(C)C)NC(=O)NNC(=O)[C@H](Cc1ccccc1)NC(=O)[C@H](CO)NC(=O)[C@H](CC(N)=O)NC(=O)[C@H](CC1CCCCC1)NC(=O)[C@H](CC(N)=O)NC(=O)[C@H](N)Cc1ccc(O)cc1)C(=O)N[C@@H](Cc1ccccc1)C(N)=O

Columns and labels:
[1] = target: T1, human OT7T175 (metastin receptor) (human, UniProt Q969F8 1-398); test: cell-based or functional assay
[2] = target: T1, human OT7T175 (metastin receptor); test: cell-based or functional assay; remark: listed apart in the source
[3] = target: T1, human OT7T175 (metastin receptor); test: FMAT competition with Cy-5-labeled metastin (40-54), hOT7T175-expressed CHO cells
[4] = target: T1, human OT7T175 (metastin receptor); test: cell-based or functional assay; remark: listed apart in the source
[5] = target: T1, human OT7T175 (metastin receptor); test: cell-based or functional assay; remark: listed apart in the source

T1 sequence (Q969F8 whole entry L364H): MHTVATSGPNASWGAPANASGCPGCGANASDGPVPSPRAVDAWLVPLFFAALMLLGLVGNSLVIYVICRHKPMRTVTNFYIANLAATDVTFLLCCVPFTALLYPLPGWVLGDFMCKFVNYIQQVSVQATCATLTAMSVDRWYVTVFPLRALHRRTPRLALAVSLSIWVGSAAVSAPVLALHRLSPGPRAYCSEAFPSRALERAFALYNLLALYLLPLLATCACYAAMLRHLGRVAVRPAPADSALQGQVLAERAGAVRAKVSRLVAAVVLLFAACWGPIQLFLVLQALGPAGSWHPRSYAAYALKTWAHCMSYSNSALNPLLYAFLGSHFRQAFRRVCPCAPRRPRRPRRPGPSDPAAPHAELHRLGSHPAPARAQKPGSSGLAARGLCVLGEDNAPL

Row | Binder | intracellular Ca ion level-increasing activity (FLIPR) [1] | cell growth inhibition activity, IC50 [2] | IC50 [3] | intracellular Ca ion level-increasing activity (FLIPR) [4] | intracellular Ca ion level-increasing activity (FLIPR) [5]
1 | [dY]N[4Pal]NSF[azaGly]L[Arg(Me)]F-NH2 [Compound No. 286: [D-Tyr1,Pya(4) 3,AzaGly7,Arg(Me)9]MS10] | 2 specific activity to metastin (1-54) | 18.3 nM | 17 nM | – | –
2 | [dY][dN][4Pal]NSF[azaGly]L[Arg(Me)]F-NH2 [Compound No. 303: [D-Tyr1,D-Asn2,Pya(4) 3,AzaGly7,Arg(Me)9]MS10] | – | 41.2 nM | 0.5 nM | 5 specific activity to metastin (1-54) | –
3 | B1 | – | – | 720 nM | – | 1 specific activity to metastin (1-54)
4 | {4‑Imidazoleacetyl}-NSF[azaGly]L[Arg(Me)]F-NH2 [Compound No. 323: des(1-3)-4-Imidazoleacetyl-[AzaGly7,Arg(Me)9]MS10] | – | – | 280 nM | 1 specific activity to metastin (1-54) | –
5 | Fmoc-NSFGL[Arg(Me)]F-NH2 [Compound No. 144: des(1-3)-Fmoc-[Arg(Me)9]MS10] | – | – | – | – | 1 specific activity to metastin (1-54)
6 | YNWNSFGLRW-NH2 [Compound No. 134: [Trp10]MS10] | – | – | 110 nM | – | 30 specific activity to metastin (1-54)
7 | B2 | – | – | 260 nM | – | 1 specific activity to metastin (1-54)
8 | B3 | – | – | 420 nM | – | 10 specific activity to metastin (1-54)
9 | B4 | – | – | 160 nM | – | 2 specific activity to metastin (1-54)
10 | YNWNSFGLRX (Nal(1)10; C-terminal amide) [Compound No. 133: [Nal(1)10]MS10] | – | – | 330 nM | – | 3 specific activity to metastin (1-54)
11 | YNWNSXGLRF (Nal(2)6; C-terminal amide) [Compound No. 152: [Nal(2)6]MS10] | – | – | 180 nM | – | 5 specific activity to metastin (1-54)
12 | [dY]NWNSFGL[Arg(Me)]F-NH2 [Compound No. 141: [D-Tyr1,Arg(Me)9]MS10] | – | 87 nM | – | – | –
13 | YN[dW]NSFGL[Arg(Me)]F-NH2 [Compound No. 143: [D-Trp3,Arg(Me)9]MS10] | – | – | 7.7 nM | – | 3 specific activity to metastin (1-54)
14 | B5 | – | – | 230 nM | – | 10 specific activity to metastin (1-54)
15 | YNWNSFGLR[Phe(4-NH2)]-NH2 [Compound No. 131: [Phe(4NH2)10]MS10] | – | – | 120 nM | – | 3 specific activity to metastin (1-54)
16 | YNWNSXGLRF (Nal(1)6; C-terminal amide) [Compound No. 151: [Nal(1)6]MS10] | – | – | 300 nM | – | 1 specific activity to metastin (1-54)
17 | YNWNSFGLR[Phe(3,4-Cl2)]-NH2 [Compound No. 199: [Phe(3,4Cl2)10]MS10] | – | – | 470 nM | – | 3 specific activity to metastin (1-54)
18 | B6 | – | – | 98 nM | – | 5 specific activity to metastin (1-54)
19 | B7 | – | – | 110 nM | – | 10 specific activity to metastin (1-54)
20 | YNWNSXGLRF (Cha6; C-terminal amide) [Compound No. 156: [Cha6]MS10] | – | – | 49 nM | – | 2 specific activity to metastin (1-54)
21 | B8 | – | – | 12 nM | – | 10 specific activity to metastin (1-54)
